The values that follow come from paper PMC12416549 (2024).

The assay has as its target T1, TNFR1 (Homo sapiens, UniProt P19438).
T1 chain: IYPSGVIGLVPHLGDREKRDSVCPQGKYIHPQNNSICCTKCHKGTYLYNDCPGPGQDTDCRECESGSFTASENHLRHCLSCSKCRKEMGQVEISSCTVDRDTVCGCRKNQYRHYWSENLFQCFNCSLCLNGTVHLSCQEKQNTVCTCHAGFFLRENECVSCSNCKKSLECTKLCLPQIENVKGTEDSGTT
Put plainly: yeast display SC50.

B1: A90E (designed binder)
chain: MTLQELLREEALRRAEAEAFRYALELLAEKFPEQKEYLLDLAEEIESQIRSLSGVDVEDVRKFLDKEWAWVKELLAEHPAELAEVEAAREARLAELRAEVEAKVAA
On to B1, for which the “apparent Kd (screen)” value came to 0.49 nM.

B2: R97P (designed binder)
chain: MTLQELLREEALRRAEAEAFRYALELLAEKFPEQKEYLLDLAEEIESQIRSLSGVDVEDVRKFLDKEWAWVKELLAEHPAELAEVEAARAARLAELPAEVEAKVAA
Consider B2, for which the “apparent Kd (screen)” value is 0.869 nM.

B3: Q4E (designed binder)
chain: MTLEELLREEALRRAEAEAFRYALELLAEKFPEQKEYLLDLAEEIESQIRSLSGVDVEDVRKFLDKEWAWVKELLAEHPAELAEVEAARAARLAELRAEVEAKVAA
For the molecule B3, the “apparent Kd (screen)” value came out at 0.79 nM.

B4: A11Y (designed binder)
chain: MTLQELLREEYLRRAEAEAFRYALELLAEKFPEQKEYLLDLAEEIESQIRSLSGVDVEDVRKFLDKEWAWVKELLAEHPAELAEVEAARAARLAELRAEVEAKVAA
With B4, the “apparent Kd (screen)” value was determined as 0.49 nM.

B5: L3K (designed binder)
chain: MTKQELLREEALRRAEAEAFRYALELLAEKFPEQKEYLLDLAEEIESQIRSLSGVDVEDVRKFLDKEWAWVKELLAEHPAELAEVEAARAARLAELRAEVEAKVAA
For B5, the “apparent Kd (screen)” value turned out to be 2.48 nM.

B6: A23I (designed binder)
chain: MTLQELLREEALRRAEAEAFRYILELLAEKFPEQKEYLLDLAEEIESQIRSLSGVDVEDVRKFLDKEWAWVKELLAEHPAELAEVEAARAARLAELRAEVEAKVAA
Take B6: the “apparent Kd (screen)” value amounted to 0.653 nM.

B7: F20P (designed binder)
chain: MTLQELLREEALRRAEAEAPRYALELLAEKFPEQKEYLLDLAEEIESQIRSLSGVDVEDVRKFLDKEWAWVKELLAEHPAELAEVEAARAARLAELRAEVEAKVAA
For B7, the “apparent Kd (screen)” value came out at 7.07 nM.

B8: L7V (designed binder)
chain: MTLQELVREEALRRAEAEAFRYALELLAEKFPEQKEYLLDLAEEIESQIRSLSGVDVEDVRKFLDKEWAWVKELLAEHPAELAEVEAARAARLAELRAEVEAKVAA
For the molecule B8, the “apparent Kd (screen)” value is 2.25 nM.

B9: A91S (designed binder)
chain: MTLQELLREEALRRAEAEAFRYALELLAEKFPEQKEYLLDLAEEIESQIRSLSGVDVEDVRKFLDKEWAWVKELLAEHPAELAEVEAARASRLAELRAEVEAKVAA
B9: the “apparent Kd (screen)” value was 0.79 nM.

B10: E44Y (designed binder)
chain: MTLQELLREEALRRAEAEAFRYALELLAEKFPEQKEYLLDLAEYIESQIRSLSGVDVEDVRKFLDKEWAWVKELLAEHPAELAEVEAARAARLAELRAEVEAKVAA
With B10, the “apparent Kd (screen)” value turned out to be 7.78 nM.

B11: A42E (designed binder)
chain: MTLQELLREEALRRAEAEAFRYALELLAEKFPEQKEYLLDLEEEIESQIRSLSGVDVEDVRKFLDKEWAWVKELLAEHPAELAEVEAARAARLAELRAEVEAKVAA
Take B11: the “apparent Kd (screen)” value was 0.956 nM.

B12: E84D (designed binder)
chain: MTLQELLREEALRRAEAEAFRYALELLAEKFPEQKEYLLDLAEEIESQIRSLSGVDVEDVRKFLDKEWAWVKELLAEHPAELADVEAARAARLAELRAEVEAKVAA
On to B12, for which the “apparent Kd (screen)” value was found to be 0.49 nM.

B13: E46G (designed binder)
chain: MTLQELLREEALRRAEAEAFRYALELLAEKFPEQKEYLLDLAEEIGSQIRSLSGVDVEDVRKFLDKEWAWVKELLAEHPAELAEVEAARAARLAELRAEVEAKVAA
For the molecule B13, the “apparent Kd (screen)” value is 0.49 nM.

B14: L82C (designed binder)
chain: MTLQELLREEALRRAEAEAFRYALELLAEKFPEQKEYLLDLAEEIESQIRSLSGVDVEDVRKFLDKEWAWVKELLAEHPAECAEVEAARAARLAELRAEVEAKVAA
On to B14, for which the “apparent Kd (screen)” value came out at 0.593 nM.

B15: E18V (designed binder)
chain: MTLQELLREEALRRAEAVAFRYALELLAEKFPEQKEYLLDLAEEIESQIRSLSGVDVEDVRKFLDKEWAWVKELLAEHPAELAEVEAARAARLAELRAEVEAKVAA
In the case of B15, the “apparent Kd (screen)” value amounted to 0.79 nM.

B16: M1Q (designed binder)
chain: QTLQELLREEALRRAEAEAFRYALELLAEKFPEQKEYLLDLAEEIESQIRSLSGVDVEDVRKFLDKEWAWVKELLAEHPAELAEVEAARAARLAELRAEVEAKVAA
Take B16: the “apparent Kd (screen)” value was found to be 0.593 nM.

B17: E67S (designed binder)
chain: MTLQELLREEALRRAEAEAFRYALELLAEKFPEQKEYLLDLAEEIESQIRSLSGVDVEDVRKFLDKSWAWVKELLAEHPAELAEVEAARAARLAELRAEVEAKVAA
B17: the “apparent Kd (screen)” value amounted to 6.43 nM.

B18: W68N (designed binder)
chain: MTLQELLREEALRRAEAEAFRYALELLAEKFPEQKEYLLDLAEEIESQIRSLSGVDVEDVRKFLDKENAWVKELLAEHPAELAEVEAARAARLAELRAEVEAKVAA
Consider B18, for which the “apparent Kd (screen)” value is 12.5 nM.

B19: L39G (designed binder)
chain: MTLQELLREEALRRAEAEAFRYALELLAEKFPEQKEYLGDLAEEIESQIRSLSGVDVEDVRKFLDKEWAWVKELLAEHPAELAEVEAARAARLAELRAEVEAKVAA
With B19, the “apparent Kd (screen)” value is 3 nM.

B20: L38D (designed binder)
chain: MTLQELLREEALRRAEAEAFRYALELLAEKFPEQKEYDLDLAEEIESQIRSLSGVDVEDVRKFLDKEWAWVKELLAEHPAELAEVEAARAARLAELRAEVEAKVAA
As for B20, the “apparent Kd (screen)” value is 11.4 nM.

B21: Q34Y (designed binder)
chain: MTLQELLREEALRRAEAEAFRYALELLAEKFPEYKEYLLDLAEEIESQIRSLSGVDVEDVRKFLDKEWAWVKELLAEHPAELAEVEAARAARLAELRAEVEAKVAA
In the case of B21, the “apparent Kd (screen)” value is 0.539 nM.

B22: Q4Y (designed binder)
chain: MTLYELLREEALRRAEAEAFRYALELLAEKFPEQKEYLLDLAEEIESQIRSLSGVDVEDVRKFLDKEWAWVKELLAEHPAELAEVEAARAARLAELRAEVEAKVAA
Take B22: the “apparent Kd (screen)” value stood at 0.49 nM.

B23: R13A (designed binder)
chain: MTLQELLREEALARAEAEAFRYALELLAEKFPEQKEYLLDLAEEIESQIRSLSGVDVEDVRKFLDKEWAWVKELLAEHPAELAEVEAARAARLAELRAEVEAKVAA
On to B23, for which the “apparent Kd (screen)” value was found to be 0.368 nM.

B24: E10Q (designed binder)
chain: MTLQELLREQALRRAEAEAFRYALELLAEKFPEQKEYLLDLAEEIESQIRSLSGVDVEDVRKFLDKEWAWVKELLAEHPAELAEVEAARAARLAELRAEVEAKVAA
For the molecule B24, the “apparent Kd (screen)” value amounted to 13.8 nM.

B25: E95I (designed binder)
chain: MTLQELLREEALRRAEAEAFRYALELLAEKFPEQKEYLLDLAEEIESQIRSLSGVDVEDVRKFLDKEWAWVKELLAEHPAELAEVEAARAARLAILRAEVEAKVAA
Take B25: the “apparent Kd (screen)” value came out at 0.446 nM.

B26: L27P (designed binder)
chain: MTLQELLREEALRRAEAEAFRYALELPAEKFPEQKEYLLDLAEEIESQIRSLSGVDVEDVRKFLDKEWAWVKELLAEHPAELAEVEAARAARLAELRAEVEAKVAA
For the molecule B26, the “apparent Kd (screen)” value was 7.78 nM.

B27: Y22R (designed binder)
chain: MTLQELLREEALRRAEAEAFRRALELLAEKFPEQKEYLLDLAEEIESQIRSLSGVDVEDVRKFLDKEWAWVKELLAEHPAELAEVEAARAARLAELRAEVEAKVAA
As to B27, the “apparent Kd (screen)” value was determined as 0.593 nM.

B28: L26P (designed binder)
chain: MTLQELLREEALRRAEAEAFRYALEPLAEKFPEQKEYLLDLAEEIESQIRSLSGVDVEDVRKFLDKEWAWVKELLAEHPAELAEVEAARAARLAELRAEVEAKVAA
For the molecule B28, the “apparent Kd (screen)” value worked out at 13.8 nM.

B29: L82H (designed binder)
chain: MTLQELLREEALRRAEAEAFRYALELLAEKFPEQKEYLLDLAEEIESQIRSLSGVDVEDVRKFLDKEWAWVKELLAEHPAEHAEVEAARAARLAELRAEVEAKVAA
As to B29, the “apparent Kd (screen)” value came out at 0.593 nM.

B30: A102D (designed binder)
chain: MTLQELLREEALRRAEAEAFRYALELLAEKFPEQKEYLLDLAEEIESQIRSLSGVDVEDVRKFLDKEWAWVKELLAEHPAELAEVEAARAARLAELRAEVEDKVAA
With B30, the “apparent Kd (screen)” value was 0.539 nM.

B31: L93E (designed binder)
chain: MTLQELLREEALRRAEAEAFRYALELLAEKFPEQKEYLLDLAEEIESQIRSLSGVDVEDVRKFLDKEWAWVKELLAEHPAELAEVEAARAAREAELRAEVEAKVAA
For B31, the “apparent Kd (screen)” value came to 0.869 nM.

B32: Q4D (designed binder)
chain: MTLDELLREEALRRAEAEAFRYALELLAEKFPEQKEYLLDLAEEIESQIRSLSGVDVEDVRKFLDKEWAWVKELLAEHPAELAEVEAARAARLAELRAEVEAKVAA
Regarding B32, the “apparent Kd (screen)” value came out at 0.539 nM.

B33: M1M (designed binder)
chain: MTLQELLREEALRRAEAEAFRYALELLAEKFPEQKEYLLDLAEEIESQIRSLSGVDVEDVRKFLDKEWAWVKELLAEHPAELAEVEAARAARLAELRAEVEAKVAA
B33: the “apparent Kd (screen)” value is 0.49 nM.

B34: W68Y (designed binder)
chain: MTLQELLREEALRRAEAEAFRYALELLAEKFPEQKEYLLDLAEEIESQIRSLSGVDVEDVRKFLDKEYAWVKELLAEHPAELAEVEAARAARLAELRAEVEAKVAA
Turning to B34, the “apparent Kd (screen)” value stood at 0.49 nM.
